The values that follow come from the supplement of paper PMC9732359.

A short description of the series: protein stability index of a GFP-peptide fusion (yeast GPS) (PSI 1-4); higher = more stable; sorted into four equal gates, so the index is relative within each strain. Summed up: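 Yeast carrying a pooled library were grown to mid-log phase in leucine-free medium. Each library plasmid expresses Cherry and has a tiled 17-residue yeast protein peptide fused downstream of GFP. Cells were sorted into four equal gates by GFP/Cherry ratio, and plasmids from each gate were PCR-amplified, Illumina-sequenced and assigned to strains by barcode. Summing, across gates, the read frequency times the gate number gave each peptide's protein stability index.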

± gives the uncertainty stated by the source.

On to EKIWFAISKENLCGDIS [SIR3], for which the protein stability index amounted to 2.39 ± 0.064 (doa10∆), 2.44 ± 0.078 (pdr5∆), 2.27 ± 0.11 (san1∆) and 1.91 ± 0.078 (ubr1∆).
The corresponding values for EKKLMQDNKQLYQIWIV [YDL116W/NUP84] are 2.06 ± 0.075, 1.83 ± 0.078, 2.72 ± 0.15 and 1.44 ± 0.072.
Consider EKKPAAKKTSTSVDGKK [HTB2], for which the protein stability index runs as follows: (doa10∆) 2.38 ± 0.2; (pdr5∆) 2.94 ± 0.15; (san1∆) 2.72 ± 0.19; (ubr1∆) 2.55 ± 0.2.
The corresponding values for EKLAVSALEQAIIYQRG [YGL100W/SEH1] are 2.04 ± 0.097, 2.38 ± 0.11, 2.11 ± 0.096 and 2.4 ± 0.12.
As for EKLLETNVSKQNDFLFS [ECM29], the protein stability index (doa10∆) worked out at 2.64 ± 0.1, the protein stability index (pdr5∆) was found to be 2.97 ± 0.093, the protein stability index (san1∆) is 1.53 ± 0.16 and the protein stability index (ubr1∆) was determined as 1.76 ± 0.089.
In turn, EKLLQQDREITNWARTT [MED8] showed a protein stability index (doa10∆) of 2.37 ± 0.09, a protein stability index (pdr5∆) of 1.77 ± 0.087, a protein stability index (san1∆) of 2.48 ± 0.089 and a protein stability index (ubr1∆) of 2.06 ± 0.11.
The corresponding values for EKLYIFYKLNMPDEFNT [SRP72] are 2.13 ± 0.043, 1.96 ± 0.053, 1.91 ± 0.078 and 1.6 ± 0.041.
As for EKNEKEREIKRRKFDPS [UBP6], the protein stability index worked out at 3.3 ± 0.05 (doa10∆), 3.25 ± 0.051 (pdr5∆), 3.09 ± 0.044 (san1∆) and 3.25 ± 0.057 (ubr1∆).
The corresponding values for EKPFNENRFQDTLLLLP [POP4] are 1.52 ± 0.11, 2.58 ± 0.076, 1.52 ± 0.14 and 2.72 ± 0.1.
With EKSGISKMSDESFAELM [RPC17], the protein stability index by setting is: (doa10∆) 3.26 ± 0.14; (san1∆) 3.27 ± 0.11; (ubr1∆) 3.42 ± 0.2.
Take EKSLLPKIETNVYVGMT [ISW2]: the protein stability index reads like this: (doa10∆) 2.92 ± 0.13; (pdr5∆) 2.97 ± 0.11; (san1∆) 3.07 ± 0.098; (ubr1∆) 3.2 ± 0.1.
The corresponding values for EKSRISERDSKDRYING [YMR129W/POM152] are 3.01 ± 0.09, 3.08 ± 0.062, 3.04 ± 0.066 and 2.54 ± 0.05.
On to EKVILVQEQLSKNRIIV [RET1], for which the protein stability index amounted to 1.63 ± 0.087 (doa10∆), 1.38 ± 0.084 (pdr5∆), 1.5 ± 0.11 (san1∆) and 1.37 ± 0.052 (ubr1∆).
The corresponding values for EKVTIAPLVLLSALDHY [RPN8] are 1.62 ± 0.033, 1.63 ± 0.031, 1.42 ± 0.06 and 1.48 ± 0.029.
For ELDAQTLPGDDELDQEI [RPT5], the protein stability index is, setting by setting: (doa10∆) 3.32 ± 0.097; (pdr5∆) 3.26 ± 0.12; (san1∆) 3.44 ± 0.083; (ubr1∆) 3.59 ± 0.094.
The corresponding values for ELEEQESESERKYDLFQ [SMC2] are 3.32 ± 0.16, 3.28 ± 0.11, 3.31 ± 0.068 and 3.29 ± 0.094.
Take ELHKKLVEAAKLLKIPK [YDL116W/NUP84]: the protein stability index is, setting by setting: (doa10∆) 2.57 ± 0.13; (pdr5∆) 2.24 ± 0.15; (san1∆) 2.33 ± 0.22; (ubr1∆) 2.49 ± 0.1.
The corresponding values for ELIKNYITARIMAKRPF [FAS1] are 2.93 ± 0.13, 2.58 ± 0.26, 3.03 ± 0.046 and 2.78 ± 0.21.
As for ELLDFLTSNLSNYSRTM [YJL039C/NUP192], the protein stability index (doa10∆) is 2.35 ± 0.076, the protein stability index (pdr5∆) turned out to be 2.54 ± 0.079, the protein stability index (san1∆) came out at 2.82 ± 0.054 and the protein stability index (ubr1∆) stood at 2.59 ± 0.085.
The corresponding values for ELLEHIETIGHLITKEE [RPN5] are 2.91 ± 0.076, 3.03 ± 0.11, 3.08 ± 0.068 and 3.12 ± 0.076.
For ELNDIDTKIDQVNGNIR [SMC3], the protein stability index (doa10∆) was determined as 3.34 ± 0.22, the protein stability index (pdr5∆) was found to be 3.34 ± 0.12, the protein stability index (san1∆) stood at 3.07 ± 0.13 and the protein stability index (ubr1∆) came out at 3.2 ± 0.1.
Turning to ELNSSEDILEDMNSNLQ [SMC1], the protein stability index is 3.38 ± 0.072 (doa10∆), 3.32 ± 0.072 (pdr5∆), 3.24 ± 0.045 (san1∆) and 3.2 ± 0.054 (ubr1∆).
The corresponding values for ELNYFVGCKNLERLTLV [GRR1] are 2.92 ± 0.11, 2.83 ± 0.093, 2.19 ± 0.094 and 3.05 ± 0.081.
As to ELPLEDFKAKYCDSMGR [RPB5], the protein stability index is, setting by setting: (doa10∆) 3.31 ± 0.13; (pdr5∆) 3.29 ± 0.14; (san1∆) 3.74 ± 0.13; (ubr1∆) 3.51 ± 0.12.
The corresponding values for ELQIFKTANSSSDAFEK [YIL149C/MLP2] are 2.44 ± 0.049, 2.73 ± 0.049, 2.61 ± 0.061 and 2.75 ± 0.049.
ELQKLVHDLNKYKSNTN [SMC2]: the protein stability index is 3.15 ± 0.072 (doa10∆), 3.31 ± 0.071 (pdr5∆), 3.41 ± 0.047 (san1∆) and 3.32 ± 0.06 (ubr1∆).
The corresponding values for ELRRPGVDNLRRMGILK [RPO31] are 3.17 ± 0.079, 2.98 ± 0.067, 2.85 ± 0.06 and 3.08 ± 0.039.
The corresponding values for ELRYQSHILNSHSLALN [DSN1] are 2.29 ± 0.066, 2.66 ± 0.058, 2.63 ± 0.057 and 2.66 ± 0.049.
Sequence ELSNELSRLSTASKIIV [MED1] had a protein stability index (doa10∆) of 2.68 ± 0.087, a protein stability index (pdr5∆) of 2.55 ± 0.089, a protein stability index (san1∆) of 2.72 ± 0.097 and a protein stability index (ubr1∆) of 3.26 ± 0.077.
The corresponding values for ELTKSLSIAFENGDYAA [RPN12] are 3.17 ± 0.16, 3 ± 0.11, 3.24 ± 0.073 and 3.24 ± 0.12.
The corresponding values for ELVFSKGVYLILSEILC [YML103C/NUP188] are 1.93 ± 0.049, 1.54 ± 0.048, 1.71 ± 0.07 and 1.51 ± 0.026.
The corresponding values for ELVVFLPALCKKMGVPY [RPL8A] are 2.92 ± 0.098, 2.83 ± 0.11, 2.78 ± 0.14 and 3 ± 0.061.
Regarding EMGKLRERDITSLFHKF [RRI2], the protein stability index came to 1.8 ± 0.071 (doa10∆), 1.83 ± 0.071 (pdr5∆), 1.79 ± 0.17 (san1∆) and 1.95 ± 0.058 (ubr1∆).
The corresponding values for EMGKTDKSTKTAEAPTL [YOR098C/NUP1] are 3.1 ± 0.16, 3.25 ± 0.15, 2.89 ± 0.064 and 2.86 ± 0.14.
The corresponding values for EMTLPTSPLYMDPGAPL [SSN2] are 3.07 ± 0.11, 2.8 ± 0.11, 2.8 ± 0.15 and 2.81 ± 0.11.
The corresponding values for ENANADLENKFNRLKKQ [YIL149C/MLP2] are 3.06 ± 0.067, 3.07 ± 0.057, 3.09 ± 0.068 and 3 ± 0.037.
As to ENDTNMNETLNLKVELK [SMC4], the protein stability index by setting is: (doa10∆) 3.43 ± 0.2; (pdr5∆) 3.17 ± 0.084; (san1∆) 3.09 ± 0.13; (ubr1∆) 2.99 ± 0.077.
